The RNAGym collection of RNA variant scans (doi:10.7554/elife.80360)

B1: Hairpin Ribozyme (parent)
chain: GUCCUCUUUCACGUGCGCGUGAAAGAGAGAAGUGAACCAGAGAAACACACGUUGUGGUAUAUUACCUGGUA

Variants of: B1
Test: self-cleavage, relative activity (ratio to wild type); higher = more cleavage; co-transcriptional

In order of falling self-cleavage:
1. GUCCUCUUUCACGUGCGCGUGAAAGAGAGAAGUGAACCAGAGAAACACACGUUGUAGUAUAUUACCUGGUC [G56A A71C]  0.404
2. GUCCUCUUUCACGUGCGCGUGAAAGAGAGAAGUGAACCAGAGAAACACACGUUGGGGUAUAUAACCUGGUA [U55G U63A]  0.346
3. GUCCUCUUUCACGUGCGCGUGAAAGAGAGAAGUGAACCAGAGAAACACACGUUGUCGUAUAUUACCUGGUC [G56C A71C]  0.315
4. GUCCUCUUUCACGUGCGCGUGAAAGAGAGAAGUGAACCAGAGAAACACACGUUGUAGGAUAUUACCUGGUA [G56A U58G]  0.274
5. GUCCUCUUUCACGUGCGCGUGAAAGAGAGAAGUGAACCAGAGAAACACACGUUGUCGUAUAUUAACUGGUA [G56C C65A]  0.274
6. GUCCUCUUUCACGUGCGCGUGAAAGAGAGAAGUGAACCAGAGAAACACACGUUGGGGUAUAUUACCUGGCA [U55G U70C]  0.264
7. GUCCUCUUUCACGUGCGCGUGAAAGAGAGAAGUGAACCAGAGAAACACACGUUGUAGUAUAUUACCUGUUA [G56A G69U]  0.258
8. GUCCUCUUUCACGUGCGCGUGAAAGAGAGAAGUGAACCAGAGAAACACACGUUGUCGCAUAUUACCUGGUA [G56C U58C]  0.246
9. GUCCUCUUUCACGUGCGCGUGAAAGAGAGAAGUGAACCAGAGAAACACACGUUGUCGUAUACUACCUGGUA [G56C U62C]  0.244
10. GUCCUCUUUCACGUGCGCGUGAAAGAGAGAAGUGAACCAGAGAAACACACGUUGGGGUAUAUUACCAGGUA [U55G U67A]  0.219
11. GUCCUCUUUCACGUGCGCGUGAAAGAGAGAAGUGAACCAGAGAAACACACGUUGUAGUACAUUACCUGGUA [G56A U60C]  0.219
12. GUCCUCUUUCACGUGCGCGUGAAAGAGAGAAGUGAACCAGAGAAACACACGUUGUAGUAUAUUAGCUGGUA [G56A C65G]  0.214
13. GUCCUCUUUCACGUGCGCGUGAAAGAGAGAAGUGAACCAGAGAAACACACGUUGUCGUAUAUUACGUGGUA [G56C C66G]  0.209
14. GUCCUCUUUCACGUGCGCGUGAAAGAGAGAAGUGAACCAGAGAAACACACGUUGUCGAAUAUUACCUGGUA [G56C U58A]  0.2
15. GUCCUCUUUCACGUGCGCGUGAAAGAGAGAAGUGAACCAGAGAAACACACGUUGUCGUAUAUUACUUGGUA [G56C C66U]  0.199
16. GUCCUCUUUCACGUGCGCGUGAAAGAGAGAAGUGAACCAGAGAAACACACGUUGUAGUAUAAUACCUGGUA [G56A U62A]  0.182
17. GUCCUCUUUCACGUGCGCGUGAAAGAGAGAAGUGAACCAGAGAAACACACGUUGUAGUAUAUUACCUGGUA [G56A]  0.174
18. GUCCUCUUUCACGUGCGCGUGAAAGAGAGAAGUGAACCAGAGAAACACACGUUGUCGUUUAUUACCUGGUA [G56C A59U]  0.173
19. GUCCUCUUUCACGUGCGCGUGAAAGAGAGAAGUGAACCAGAGAAACACACGUUGUAGUGUAUUACCUGGUA [G56A A59G]  0.167
20. GUCCUCUUUCACGUGCGCGUGAAAGAGAGAAGUGAACCAGAGAAACACACGUUGUAGCAUAUUACCUGGUA [G56A U58C]  0.162
21. GUCCUCUUUCACGUGCGCGUGAAAGAGAGAAGUGAACCAGAGAAACACACGUUGUCGUAUAUUACCUGGUA [G56C]  0.156
22. GUCCUCUUUCACGUGCGCGUGAAAGAGAGAAGUGAACCAGAGAAACACACGUUGUCGUAUAUUACAUGGUA [G56C C66A]  0.156
23. GUCCUCUUUCACGUGCGCGUGAAAGAGAGAAGUGAACCAGAGAAACACACGUUGUCGUAUGUUACCUGGUA [G56C A61G]  0.155
24. GUCCUCUUUCACGUGCGCGUGAAAGAGAGAAGUGAACCAGAGAAACACACGUUGUCGUAUAUUACCUAGUA [G56C G68A]  0.153
25. GUCCUCUUUCACGUGCGCGUGAAAGAGAGAAGUGAACCAGAGAAACACACGUUGUAGUAUACUACCUGGUA [G56A U62C]  0.141
26. GUCCUCUUUCACGUGCGCGUGAAAGAGAGAAGUGAACCAGAGAAACACACGUUGUCGUAUAUUACCCGGUA [G56C U67C]  0.138
27. GUCCUCUUUCACGUGCGCGUGAAAGAGAGAAGUGAACCAGAGAAACACACGUUGUAGUAUAUUUCCUGGUA [G56A A64U]  0.135
28. GUCCUCUUUCACGUGCGCGUGAAAGAGAGAAGUGAACCAGAGAAACACACGUUGUCGUAUAUUACCUGAUA [G56C G69A]  0.135
29. GUCCUCUUUCACGUGCGCGUGAAAGAGAGAAGUGAACCAGAGAAACACACGUUGUAGUAUAUUACCCGGUA [G56A U67C]  0.129
30. GUCCUCUUUCACGUGCGCGUGAAAGAGAGAAGUGAACCAGAGAAACACACGUUGUAGUAAAUUACCUGGUA [G56A U60A]  0.121
31. GUCCUCUUUCACGUGCGCGUGAAAGAGAGAAGUGAACCAGAGAAACACACGUUGUAGUAUAUUGCCUGGUA [G56A A64G]  0.12
32. GUCCUCUUUCACGUGCGCGUGAAAGAGAGAAGUGAACCAGAGAAACACACGUUGUCAUAUAUUACCUGGUA [G56C G57A]  0.115
33. GUCCUCUUUCACGUGCGCGUGAAAGAGAGAAGUGAACCAGAGAAACACACGUUGUCGUAGAUUACCUGGUA [G56C U60G]  0.111
34. GUCCUCUUUCACGUGCGCGUGAAAGAGAGAAGUGAACCAGAGAAACACACGUUGUAGUAUAUUACCGGGUA [G56A U67G]  0.104
35. GUCCUCUUUCACGUGCGCGUGAAAGAGAGAAGUGAACCAGAGAAACACACGUUGUAGUAUAUUAACUGGUA [G56A C65A]  0.097
36. GUCCUCUUUCACGUGCGCGUGAAAGAGAGAAGUGAACCAGAGAAACACACGUUGUAGAAUAUUACCUGGUA [G56A U58A]  0.0823
37. GUCCUCUUUCACGUGCGCGUGAAAGAGAGAAGUGAACCAGAGAAACACACGUUGUAGUAUAUUCCCUGGUA [G56A A64C]  0.0783
38. GUCCUCUUUCACGUGCGCGUGAAAGAGAGAAGUGAACCAGAGAAACACACGUUGUCGUAUAUUUCCUGGUA [G56C A64U]  0.0562
